In the supplement of paper PMC7877785:
± gives the uncertainty stated by the source.

Experiment: self-splicing fitness, log relative to wild type (ln ratio); higher = more splicing; Tetrahymena group I intron in knt gene, E. coli kanamycin selection, DiMSum; sequences stand for … in CUCUCU…GGAGGGAAAAGUUAUCAGGCAUGCACCUGGUAGCUAGUCUUUAAACCAAUAGAUUGCAUCGGUUUAAAAGGCAAGACCGUCAAAUUGCGGGAAAGGGGUCAACAGCCGUUCAGUACCAAGUCUCAGGGGAAACUUUGAGAUGGCCUUGCAAAGGGUAUGGUAAUAAGCUGACGGACAUGGUCCUAACCACGCAGCCAAGUCCUAAGUCAACAGAUCUUCUGUUGAUAUGGAUGCAGUUCACAGACUAAAUGUCGGUCGGGGAAGAUGUAUUCUUCUCAUAAGAUAUAGUCGGACCUCUCCUUAAUGGGAGCUAGCGGAUGAAGUGAUGCAACACUGGAGCCGCUGGGAACUAAUUUGUAUGCGAAAGUAUAUUGAUUAGUUUUGGAGUACUCGUGGUCG
Method in brief: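 DiMSum derived fitness as the error-weighted combination of fold changes across replicates, kanamycin versus no kanamycin, normalised to wild type. E. coli BL21(DE3) held the library, which randomised all eight P1ex-region intron nucleotides within the knt kanamycin-resistance gene on pET-22b(+). Six replicate transformations grew overnight at 37°C or 30°C on LB agar with or without 25 μg/mL kanamycin, also containing 100 μg/mL carbenicillin, 50 μM IPTG and 0.2% rhamnose, and pooled colonies were amplicon-sequenced on an Illumina HiSeq 2500.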

Sequence	self-splicing fitness (ln) (30 °C)	self-splicing fitness (ln) (37 °C)
CACAAGCAAUAUUACGGCAU	-3.26 ± 0.12	-2.33 ± 0.12
GGUCAGCAAUAUUACGCGUA	-0.325 ± 0.067	-0.158 ± 0.07
GCCCAGCAAUAUUACGCAAC	-2.19 ± 0.091	-0.000822 ± 0.095
AAUAAGCAAUAUUACGGACG	-0.851 ± 0.15	-0.397 ± 0.15
GAAUAGCAAUAUUACGAGUC	-3.29 ± 0.15	-1.4 ± 0.11
AGUAAGCAAUAUUACGCGCU	-2.64 ± 0.28	-2.1 ± 0.4
CCGGAGCAAUAUUACGAGCU	-2.94 ± 0.35	-1.84 ± 0.49
AGACAGCAAUAUUACGGCUC	-2.59 ± 0.15	-1.02 ± 0.13
GGAUAGCAAUAUUACGUGUG	-1.91 ± 0.12	-1.19 ± 0.14
AAUAAGCAAUAUUACGGAAG	-3.52 ± 0.28	-1.86 ± 0.39
UAAAAGCAAUAUUACGAGAU	-3.14 ± 0.13	-2.98 ± 0.2
AAGUAGCAAUAUUACGUCUG	-0.515 ± 0.086	0.168 ± 0.11
AGAGAGCAAUAUUACGCAGU	–	-2.32 ± 0.35
ACCGAGCAAUAUUACGCGGU	-3.02 ± 0.18	-1.7 ± 0.2
GGGGAGCAAUAUUACGCGGU	-1.99 ± 0.27	–
CCAGAGCAAUAUUACGAAUC	-3.76 ± 0.26	-2.74 ± 0.27
UAGCAGCAAUAUUACGCACU	-0.419 ± 0.086	0.238 ± 0.1
CGUUAGCAAUAUUACGAACC	-0.385 ± 0.069	-0.0684 ± 0.073
CGUUAGCAAUAUUACGCCGC	-3.14 ± 0.3	-2.73 ± 0.43

Sequence	self-splicing fitness (ln) (30 °C)	self-splicing fitness (ln) (37 °C)
GCACAGCAAUAUUACGGAAU	-1.08 ± 0.076	-0.95 ± 0.095
CCCAAGCAAUAUUACGAGUC	-3.23 ± 0.16	-3.28 ± 0.24
ACACAGCAAUAUUACGGAUU	-2.18 ± 0.096	-1.45 ± 0.12
CUCAAGCAAUAUUACGAGGA	-1.9 ± 0.13	-1.66 ± 0.13
GUUCAGCAAUAUUACGGACG	-2.15 ± 0.11	-0.428 ± 0.11
AAGAAGCAAUAUUACGUGUA	-1.85 ± 0.11	-1.19 ± 0.092
CAACAGCAAUAUUACGAAGA	-2.55 ± 0.17	-2.35 ± 0.17
GUCAAGCAAUAUUACGUAUG	-4.08 ± 0.13	-2.6 ± 0.11
CUUUAGCAAUAUUACGCUGC	-3.39 ± 0.38	0.317 ± 0.36
UACUAGCAAUAUUACGUGCC	-1.33 ± 0.14	-2.6 ± 0.26
UAGCAGCAAUAUUACGCGCA	-0.588 ± 0.11	-0.487 ± 0.095
CCCCAGCAAUAUUACGAUUG	-3.58 ± 0.11	-2.72 ± 0.14
GACUAGCAAUAUUACGACCU	0.114 ± 0.093	-0.756 ± 0.095
UAGAAGCAAUAUUACGUCUC	-1.21 ± 0.11	-0.794 ± 0.1
CACUAGCAAUAUUACGCUCA	-2.66 ± 0.21	-2.08 ± 0.17
GUUGAGCAAUAUUACGAACG	–	-1.12 ± 0.35
CACCAGCAAUAUUACGCAUU	-2.6 ± 0.086	-1.86 ± 0.1
AAAUAGCAAUAUUACGUGCA	-1.23 ± 0.063	-0.426 ± 0.095
CUAUAGCAAUAUUACGAUUG	-0.58 ± 0.097	0.313 ± 0.13
